Laboratory results published in publication PMC6981147.

Assays:
[1] = target: wild-type proteasome (reconstituted from regulatory particle and core particle) (S. cerevisiae) (UniProt P38764)
[2] = target: Rpn13 proteasome (rpn1-ARR, rpn10-uim) (S. cerevisiae) (UniProt P38764)
[3] = target: TM (triple mutant) proteasome (rpn1-ARR, rpn10-uim, rpn13-pru) (S. cerevisiae) (UniProt P38764)
[4] = target: Rpn10/13 proteasome (rpn1-ARR) (S. cerevisiae) (UniProt P38764)
[5] = target: Rpn13 proteasome (reconstituted proteasome harboring the rpn1-ARR and rpn10-UIM mutations) (S. cerevisiae) (UniProt P38764)
[6] = target: Rpn1 proteasome (reconstituted proteasome harboring the rpn10-UIM and rpn13-pru mutations) (S. cerevisiae) (UniProt P38764)
[7] = target: Rpn10 proteasome (rpn1-ARR, rpn13-pru) (S. cerevisiae) (UniProt P38764)

Row | Substance | Supplementary Table 4: KM of degradation (Michaelis-Menten analysis of initial rates of loss of GFP fluorescence, 25 nM proteasome, 1 mM ATP, 30 °C) [1] [µM] | Supplementary Table 4: KM of degradation (Michaelis-Menten analysis of initial rates of loss of GFP fluorescence, 25 nM proteasome, 1 mM ATP, 30 °C) [2] [µM] | Supplementary Table 4: KM of degradation (Michaelis-Menten analysis of initial rates of loss of GFP fluorescence, 25 nM proteasome, 1 mM ATP, 30 °C) [3] [µM] | other results
1 | Ub9(K48)-GFP-35: base protein Ub-GFP-35 with a K48-linked chain of eight ubiquitins attached to its ubiquitin domain (from UniProt P0CG63 1-76; P0CG63 1-76) | 0.05 | 1.1 | 1.68 | –
2 | Ub5(K48)-GFP-35: base protein Ub-GFP-35 with a K48-linked chain of four ubiquitins attached to its ubiquitin domain (from UniProt P0CG63 1-76; P0CG63 1-76) | – | 5.72 | 5.28 | Supplementary Table 4: KM of degradation (Michaelis-Menten analysis of initial rates of loss of GFP fluorescence, 25 nM proteasome, 1 mM ATP, 30 °C) [4]: 0.058 µM
3 | UBL-GFP-35 (from UniProt P32628 1-80; P00175 1-35) | – | – | – | initial rate of degradation (GFP fluorescence), single turnover, 5 nM substrate, 25 nM proteasome, 1 mM ATP, 30 °C; against Ub5(K48)-GFP-35 or Ub9(K48)-GFP-35 on the same proteasome [5]: > 4 fold
4 | UBL-GFP-95 (from UniProt P32628 1-80) | – | – | – | initial rate of degradation (GFP fluorescence), single turnover, 5 nM substrate, 25 nM proteasome, 1 mM ATP, 30 °C; against Ub5(K48)-GFP-95 on the same proteasome [6]: 4 fold
5 | Ub5(K63)-GFP-35: base protein Ub-GFP-35 with a K63-linked chain of four ubiquitins attached to its ubiquitin domain (from UniProt P0CG63 1-76; P0CG63 1-76) | 0.333 | 0.816 | 2.06 | Supplementary Table 4: KM of degradation (Michaelis-Menten analysis of initial rates of loss of GFP fluorescence, 25 nM proteasome, 1 mM ATP, 30 °C) [7]: 0.428 µM
